Measured values published in the RNAGym collection of RNA variant scans (doi:10.7554/elife.80360).

B1: HDV Ribozyme (parent)
chain: GGCCGGCAUGGUCCCAGCCUCCUCGCUGGCGCCGGCUGGGCAACAUUCCGAGGGGACCGUCCCCUCGGUAAUGGCGAAUGGGACCCA

Variants of: B1
Experiment: self-cleavage, relative activity (ratio to wild type); higher = more cleavage; co-transcriptional

Variant	self-cleavage
GGCCGGCAUGGACCCAGCCUCCUCGCUGGCGCCGGCUGGGCAACAUUCCGAGGGCACCGUCCCCUCGGUAAUGGCGAAUGGGACCCA [U12A G55C]	0.201
GGCCGGCAUGGACCCAGCCUCCUCGCUGGCGCCGGCUGGGCAACAUUCCCAGGGGACCGUCCCCUCGGUAAUGGCGAAUGGGACCCA [U12A G50C]	0.332
GGCCGGCAUGGACCCAGCCUCCUCGCUGGCGCCGGCUGGGCAACAUUCCGAGGGGACCGUCCCCUCGGUAAUGGCGAAUGGCACCCA [U12A G82C]	0.302
GGCCGGCAUGGACCCAGCCUCCUCGCUGGCGCCGGCUGGGCAACAUUCCGAGGGGACCGUCCCCUCGGUAAUGGCUAAUGGGACCCA [U12A G76U]	0.906
GGCCGGCAUGGACCCAGCCUCCUCGCUGGCGCCGGCUGGGCAACAUUCCGAGGGGACCGUCCCCUCGGUAAUGGCCAAUGGGACCCA [U12A G76C]	0.443
GGCCGGCAUGGACCCAGCCUCCUCGCUGGCGCCGGCUGGGCAACAUUCCGAGGGGACCGUCCCCUCGGUAAUGGCAAAUGGGACCCA [U12A G76A]	0.499
GGCCGGCAUGGACCCAGCCUCCUCGCUGGCGCCGGCUGGGCAACAUUCCGAGCGGACCGUCCCCUCGGUAAUGGCGAAUGGGACCCA [U12A G53C]	0.475
GGCCGGCAUGGACCCAGCCUCCUCGCUGGCGCCGGCUGGGCAACAUUCCGAGAGGACCGUCCCCUCGGUAAUGGCGAAUGGGACCCA [U12A G53A]	0.403
GGCCGGCAUGGACCCAGCCUCCUCGCUGGCGCCGGCUUGGCAACAUUCCGAGGGGACCGUCCCCUCGGUAAUGGCGAAUGGGACCCA [U12A G38U]	0.0277
GGCCGGCAUGGACCCAGCCUCCUCGCUGGCGCCGGCUGUGCAACAUUCCGAGGGGACCGUCCCCUCGGUAAUGGCGAAUGGGACCCA [U12A G39U]	0.0489
GGCCGGCAUGGACCCAGCCUCCUCGCUGGCGCCGGCUGCGCAACAUUCCGAGGGGACCGUCCCCUCGGUAAUGGCGAAUGGGACCCA [U12A G39C]	0.0594
GGCCGGCAUGGACCCAGCCUCCUCGCUGGCGCCGACUGGGCAACAUUCCGAGGGGACCGUCCCCUCGGUAAUGGCGAAUGGGACCCA [U12A G35A]	0.0875
GGCCGGCAUGGACCCAGCCUCCUCGCUGGCGCCGUCUGGGCAACAUUCCGAGGGGACCGUCCCCUCGGUAAUGGCGAAUGGGACCCA [U12A G35U]	0.0225
GGCCGGCAUGGACCCAGCCUCCUCGCUGGCGCCGCCUGGGCAACAUUCCGAGGGGACCGUCCCCUCGGUAAUGGCGAAUGGGACCCA [U12A G35C]	0.142
GGCCGGCAUGGACCCAGCCUCCUCGCUGGCUCCGGCUGGGCAACAUUCCGAGGGGACCGUCCCCUCGGUAAUGGCGAAUGGGACCCA [U12A G31U]	0.0811
GGCCGGCAUGGACCCAGCCUCCUCGCUGGCACCGGCUGGGCAACAUUCCGAGGGGACCGUCCCCUCGGUAAUGGCGAAUGGGACCCA [U12A G31A]	0.125

Variant	self-cleavage
GGCCGGCAUGGACCCAGCCUCCUCGCUGGCGCCGGCUGGGCAACAUUCCGAGGGGACCUUCCCCUCGGUAAUGGCGAAUGGGACCCA [U12A G59U]	0.214
GGCCGGCAUGGACCCAGCCUCCUCGCUGGCGCCGGCUGGGCAACAUUCCGAGGAGACCGUCCCCUCGGUAAUGGCGAAUGGGACCCA [U12A G54A]	0.306
GGCCGGCAUGGACCCAGCCUCCUCGCUGGCGCCGGCUGGGCAACAUUCCGAGGGGACCGUCCCCUCGGUAAUGCCGAAUGGGACCCA [U12A G74C]	0.135
GGCCGGCAUGGACCCAGCCUCCUCGCUGGCGCCGGCUGGGCAACAUUCCGAGGGGACCGUCCCCUCGGUAAUGACGAAUGGGACCCA [U12A G74A]	0.128
GGCCGGCAUGGACCCAGCCUCCUCGCUGGCGCCGGCUGGGCAACAUUCCGAGGGGACCGUCCCCUCAGUAAUGGCGAAUGGGACCCA [U12A G67A]	0.383
GGCCGGCAUGGACCCAGCCUCCUCGCUGGCGCCGGCUGGGCAACAUUCCGAGGGGACCGUCCCCUCUGUAAUGGCGAAUGGGACCCA [U12A G67U]	0.256
GGCCGGCAUGGACCCAGCCUCCUCGCUGGCGCCGGCUGGGCAACAUUCCGACGGGACCGUCCCCUCGGUAAUGGCGAAUGGGACCCA [U12A G52C]	0.453
GGCCGGCAUGGACCCAGCCUCCUCGCUGGCGCCGGCUGGACAACAUUCCGAGGGGACCGUCCCCUCGGUAAUGGCGAAUGGGACCCA [U12A G40A]	0.374
GGCCGGCAUGGACCCAGCCUCCUCGCUGGCGCCGGCUGGUCAACAUUCCGAGGGGACCGUCCCCUCGGUAAUGGCGAAUGGGACCCA [U12A G40U]	0.111
GGCCGGCAUGGACCCAGCCUCCUCGCUGGCGCCGGCUGGCCAACAUUCCGAGGGGACCGUCCCCUCGGUAAUGGCGAAUGGGACCCA [U12A G40C]	0.219
GGCCGGCAUGGACCCAGCCUCCUCGCUGGCGCCGGCUGGGCAACAUUCCGAGGGGACCGUCCCCUCGGUAAUGGCGAAUGUGACCCA [U12A G81U]	0.122
GGCCGGCAUGGACCCAGCCUCCUCGCUGGCGCCGGCUGGGCAACAUUCCGAGGGGACCGUCCCCUCGGUAAUGGCGAAUGCGACCCA [U12A G81C]	0.0723
GGCCGGCAUGGACCCAGCCUCCUCGCUGGCGCCUGCUGGGCAACAUUCCGAGGGGACCGUCCCCUCGGUAAUGGCGAAUGGGACCCA [U12A G34U]	0.142
GGCCGGCAUGGACCCAGCCUCCUCGCUGGCGCCGGCUGGGCAACAUUCCGAGGGGACCGUCCCCUCGGUAAUAGCGAAUGGGACCCA [U12A G73A]	0.123
GGCCGGCAUGGACCCAGCCUCCUCGCUGGCGCCGGCUGGGCAACAUUCCGAGGGGACCGUCCCCUCGGUAAUCGCGAAUGGGACCCA [U12A G73C]	0.314
GGCCGGCAUGGACCCAGCCUCCUCGCUGGCGCCGGCUGGGCAACAUUCCGAGGGGACCGUCCCCUCGGUAAUGGCGAAUCGGACCCA [U12A G80C]	0.0852
